Here are results for one sequence from patent US9879058B2, “Use of compounds that selectively modulate astrocytic release of substances through hemichannels of connexins and pannexins, without influencing gap junctions, for the treatment of psychiatric disorders” (Universidad Andres Bello, priority 2012, dated 2018).

Experiment [1] deals with T1, Cx43 hemichannels (Rattus norvegicus, UniProt P08050).
T1 construct: endogenous in cells; host or cells: primary hippocampal astrocytes of newborn (PN1) rats
T1 sequence (P08050 whole entry): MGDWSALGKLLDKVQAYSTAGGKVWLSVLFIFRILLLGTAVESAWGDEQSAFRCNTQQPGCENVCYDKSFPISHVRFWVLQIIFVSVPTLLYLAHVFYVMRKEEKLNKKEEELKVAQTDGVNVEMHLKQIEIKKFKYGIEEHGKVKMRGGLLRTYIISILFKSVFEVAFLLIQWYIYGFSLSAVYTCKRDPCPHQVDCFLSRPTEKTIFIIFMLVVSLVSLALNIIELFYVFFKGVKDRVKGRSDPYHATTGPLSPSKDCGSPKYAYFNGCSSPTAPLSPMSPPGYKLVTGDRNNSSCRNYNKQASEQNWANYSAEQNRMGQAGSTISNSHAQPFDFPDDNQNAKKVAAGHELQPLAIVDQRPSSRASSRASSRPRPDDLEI
The experiment is described as follows: Ethidium (Etd) dye uptake in astrocytes. The format is cell-based. The settings on record: 10 min preincubation. The protocol:
F. Immunohistochemistry: Brain slices previously fixed in buffered 4% paraformaldehyde and maintained in 30% sucrose were mounted in gelatin coated glass slides. After rinsing with PBS, slices were blocked and permeabilized with 1% bovine serum albumin (BSA, Sigma-Aldrich), and 3% Triton X-100 in PBS for 1 h at room temperature. After rinsing again, sections were incubated overnight at 4° C. with the primary anti-Cx43 antibody (Sigma). Afterwards, sections were rinsed with PBS and incubated for 1 h at 37° C. with Alexa Fluor® 488-conjugated secondary antibody. […]
G.2. […] H. Dye uptake: For single image visualization of dye uptake, astrocytes were bathed in recording solution [in mM: NaCl (148), KCl (5), CaCl2 (1.8), MgCl2 (1), glucose (5), HEPES (5), pH=7.4] containing 5 μM ethidium (Etd) (Sigma-Aldrich, St-Louis, Mo.), and fluorescence intensity was recorded for 10 min in selected cells (ROI, regions of interest). […] Metafluor software (version 6.2R5, Universal Imaging Co., Downingtown, Pa., USA) was used for off-line image analysis and fluorescence quantification.
For data representation, the average of two independent background fluorescence intensity measurements (FB, expressed as arbitrary units, AU) was subtracted from the fluorescence intensity in each cell (F1). […] Slopes of dye uptake were calculated using Microsoft Excel software and expressed as AU/min. […]

For experiment [2], the target named is Cx43 hemichannels (Homo sapiens, UniProt P17302). The following applies: cited from earlier work.
Cx43 hemichannels (Homo sapiens, UniProt P17302), sequence (P17302 whole entry): as the sequence (P08050 whole entry) above, with E124D, V164I, R243K, T251S, P253A, S257A, P263Q, A344S, V347L counted along it
Experiment [3] concerns the target Cx43 gap junction channel (Homo sapiens, UniProt P17302). The settings on record: cited from earlier work.

“Also recorded” adds a separate entry of the source. No end group written: not given here.

Cx43 gap junction channel, sequence (P17302 whole entry): as the sequence (P08050 whole entry) above, with E124D, V164I, R243K, T251S, P253A, S257A, P263Q, A344S, V347L counted along it

Take “YGRKKRRQRRRDGANVDMHLKQIEIKKFKYGIEEHGK [TAT-Cx43L2, synthetic cell-permeable peptide corresponding to the Cx43L2 region (aa 119-144) of the cytoplasmic loop of Cx43]”: the figures for the “hemichannel activity (Etd uptake)” value in the experiment with Cx43 hemichannels [1] (control conditions) and in the experiment with Cx43 hemichannels [1] (divalent cation-free solution (DCFS)) were “blocked astrocyte hemichannel activity; also recorded: inhibited hemichannel activity” and “complete inhibition of hemichannel activity; also recorded: reduced Etd uptake to the same level as in control cells”, respectively. Moreover, the “effect on Cx43 hemichannels, previously shown” value with Cx43 hemichannels [2] is listed as “selectively block Cx43 hemichannels”. In experiment [3], the “effect on Cx43 gap junction channel communication, previously shown” value was “without affecting Cx43 gap junction channel communication”.
